Where “and” joins values, the source holds several entries; their conditions need not be identical. Equal entries are not always repeated. Each block holds one binder with its values, some of them ahead of it.
B4: full-length mature Dkk4 (Dickkopf 4), residues 19-224, His-tagged (natural protein, human, UniProt Q9UBT3 19-224, looked up)
chain: LVLDFNNIRSSADLHGARKGSQCLSDTDCNTRKFCLQPRDEKPFCATCRGLRRRCQRDAMCCPGTLCVNDVCTTMEDATPILERQLDEQDGTHAEGTTGHPVQENQPKRKPSIKKSQGRKGQEGESCLRTFDCGPGLCCARHFWTKICKPVLLEGQVCSRRGHKDTAQAPEIFQRCDCGPGLLCRSQLTSNRQHARLRVCQKIEKL
modifications: uniformly 15N/13C/2H-labelled in the NMR experiments
notes: residues numbered from the N-terminal methionine; also called Dkk4FL

Assays:
[1] = target: T1, Kremen1 extracellular domain Fc fusion protein (human, UniProt Q96MU8 21-392); assay: BLI; Krm1 ECD-Fc loaded from supernatants on AHC biosensors; Dkk2FL or Dkk4FL 1-1000 nM, Dkk4N 0.1-100 μM; 25 mM Na2HPO4, 100 mM NaCl, 0.05% Triton X-100, pH 6.5; steady-state fit to a one-site model; settings: one partner purified
T1 construct: Kremen1 (Krm1), human, extracellular domain (kringle, WSC and CUB domains); also called Krm1 ECD-Fc; Krm1 ECD; source: expressed, in cell culture medium (supernatants); host in the supporting material
T1 sequence (looked up): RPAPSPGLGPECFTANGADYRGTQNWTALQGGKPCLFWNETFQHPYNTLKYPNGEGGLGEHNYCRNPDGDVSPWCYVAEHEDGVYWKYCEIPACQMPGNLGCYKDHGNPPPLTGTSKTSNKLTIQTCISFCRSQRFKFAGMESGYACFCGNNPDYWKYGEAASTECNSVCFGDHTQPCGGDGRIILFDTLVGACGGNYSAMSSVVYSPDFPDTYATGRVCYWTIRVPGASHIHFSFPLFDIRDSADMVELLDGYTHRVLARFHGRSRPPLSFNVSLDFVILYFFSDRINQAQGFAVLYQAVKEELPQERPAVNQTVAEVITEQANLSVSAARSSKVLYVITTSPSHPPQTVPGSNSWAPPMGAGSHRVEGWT

[2] = target: the molecule itself; assay: SEC; Superdex 75 10/300 GL, 3 μM Krm1 ECD in 50 mM Na2HPO4, 100 mM NaCl, pH 7.5; apparent masses from a calibration with globular standards; monomer and dimer
[3] = target: B4; assay: BLI; LRP6 E1E2-Fc (200 nM) loaded on AHC biosensors; Dkk4FL 1-1000 nM; 25 mM Na2HPO4, 100 mM NaCl, 0.05% Triton X-100, pH 6.5; steady-state fit to a one-site model; settings: both partners purified
[4] = target: T2, N-terminal region of Dkk4 including CRD1, residues 19-97 (human, UniProt Q9UBT3 19-97); assay: BLI; LRP6 E1E2-Fc (200 nM) loaded on AHC biosensors; Dkk4N 0.1-100 μM; 25 mM Na2HPO4, 100 mM NaCl, 0.05% Triton X-100, pH 6.5 or 7.5 (not told which for the printed KD); later experiments with 0.1% BSA; steady-state fit to a one-site model; settings: both partners purified
T2 construct: Dickkopf 4 (Dkk4), human, N-terminal region with the NXI(R/K) motif and CRD1, residues 19-97; residues numbered from the N-terminal methionine; construct details are in the supporting material; also called Dkk4N; isolated Dkk4N region; not shown: His6 (with linker), C-terminal, kept
T2 sequence (looked up): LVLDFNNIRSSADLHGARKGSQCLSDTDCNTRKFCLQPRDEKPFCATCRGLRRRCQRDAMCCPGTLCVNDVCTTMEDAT

[5] = target: T3, LRP6 E1E2-Fc (β-propeller domains 1 and 2 of low-density lipoprotein receptor-related protein 6, Fc fusion) (human); assay: BLI; pH 7.5
T3 chain: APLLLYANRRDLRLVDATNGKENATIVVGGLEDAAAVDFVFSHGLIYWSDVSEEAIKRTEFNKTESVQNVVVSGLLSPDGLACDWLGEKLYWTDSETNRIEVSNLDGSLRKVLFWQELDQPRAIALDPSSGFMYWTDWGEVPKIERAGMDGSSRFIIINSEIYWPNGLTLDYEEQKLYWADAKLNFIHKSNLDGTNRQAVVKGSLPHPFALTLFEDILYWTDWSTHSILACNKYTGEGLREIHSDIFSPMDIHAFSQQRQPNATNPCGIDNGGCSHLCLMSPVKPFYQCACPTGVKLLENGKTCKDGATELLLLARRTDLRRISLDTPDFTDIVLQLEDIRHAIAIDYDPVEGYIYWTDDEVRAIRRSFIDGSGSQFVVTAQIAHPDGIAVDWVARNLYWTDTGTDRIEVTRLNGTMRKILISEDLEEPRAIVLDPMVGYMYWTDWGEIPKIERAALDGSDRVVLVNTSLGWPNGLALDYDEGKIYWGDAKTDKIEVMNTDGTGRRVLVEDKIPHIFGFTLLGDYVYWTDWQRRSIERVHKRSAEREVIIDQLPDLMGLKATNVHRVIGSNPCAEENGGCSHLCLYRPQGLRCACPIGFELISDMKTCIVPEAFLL

[6] = target: T4, Kremen1 extracellular domain Fc fusion protein (human, UniProt Q96MU8 21-392); assay: BLI; pH 6.5
T4 chain: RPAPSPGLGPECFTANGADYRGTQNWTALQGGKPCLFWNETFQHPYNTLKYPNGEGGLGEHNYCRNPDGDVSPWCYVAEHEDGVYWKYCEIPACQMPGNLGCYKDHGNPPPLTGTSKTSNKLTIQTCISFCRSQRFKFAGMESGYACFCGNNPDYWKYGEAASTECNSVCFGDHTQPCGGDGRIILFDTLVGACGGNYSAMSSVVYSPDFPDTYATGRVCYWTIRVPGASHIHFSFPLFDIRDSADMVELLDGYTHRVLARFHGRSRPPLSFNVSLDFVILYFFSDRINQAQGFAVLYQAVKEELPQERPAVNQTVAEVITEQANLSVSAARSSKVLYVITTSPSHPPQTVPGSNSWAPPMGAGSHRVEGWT

[7] = target: T3, LRP6 E1E2-Fc (β-propeller domains 1 and …); assay: BLI; pH 6.5

B2: isolated Kremen1 extracellular domain, Fc tag removed (domain or fragment, human, UniProt Q96MU8 21-392, looked up)
chain: RPAPSPGLGPECFTANGADYRGTQNWTALQGGKPCLFWNETFQHPYNTLKYPNGEGGLGEHNYCRNPDGDVSPWCYVAEHEDGVYWKYCEIPACQMPGNLGCYKDHGNPPPLTGTSKTSNKLTIQTCISFCRSQRFKFAGMESGYACFCGNNPDYWKYGEAASTECNSVCFGDHTQPCGGDGRIILFDTLVGACGGNYSAMSSVVYSPDFPDTYATGRVCYWTIRVPGASHIHFSFPLFDIRDSADMVELLDGYTHRVLARFHGRSRPPLSFNVSLDFVILYFFSDRINQAQGFAVLYQAVKEELPQERPAVNQTVAEVITEQANLSVSAARSSKVLYVITTSPSHPPQTVPGSNSWAPPMGAGSHRVEGWT
notes: Kremen1 (Krm1), human, extracellular domain (kringle, WSC and CUB domains); Eluted in SEC as monomer (35 kDa) and noncovalent dimer (70 kDa); also called Krm1 ECD; isolated Krm1 ECD; source: prepared from Krm1 ECD-Fc by removal of the Fc tag, size-exclusion chromatography; host in the supporting material
stoichiometry N [2]: 2

B3: LRP6 E1E2-Fc (β-propeller domains 1 and 2 of low-density lipoprotein receptor-related protein 6, Fc fusion) (Fc fusion)
chain: APLLLYANRRDLRLVDATNGKENATIVVGGLEDAAAVDFVFSHGLIYWSDVSEEAIKRTEFNKTESVQNVVVSGLLSPDGLACDWLGEKLYWTDSETNRIEVSNLDGSLRKVLFWQELDQPRAIALDPSSGFMYWTDWGEVPKIERAGMDGSSRFIIINSEIYWPNGLTLDYEEQKLYWADAKLNFIHKSNLDGTNRQAVVKGSLPHPFALTLFEDILYWTDWSTHSILACNKYTGEGLREIHSDIFSPMDIHAFSQQRQPNATNPCGIDNGGCSHLCLMSPVKPFYQCACPTGVKLLENGKTCKDGATELLLLARRTDLRRISLDTPDFTDIVLQLEDIRHAIAIDYDPVEGYIYWTDDEVRAIRRSFIDGSGSQFVVTAQIAHPDGIAVDWVARNLYWTDTGTDRIEVTRLNGTMRKILISEDLEEPRAIVLDPMVGYMYWTDWGEIPKIERAALDGSDRVVLVNTSLGWPNGLALDYDEGKIYWGDAKTDKIEVMNTDGTGRRVLVEDKIPHIFGFTLLGDYVYWTDWQRRSIERVHKRSAEREVIIDQLPDLMGLKATNVHRVIGSNPCAEENGGCSHLCLYRPQGLRCACPIGFELISDMKTCIVPEAFLL
Kd [3]: 64 to 77 nM
Kd [4]: 11000 to 30000 nM

Binder: B4
Kd [1]: 93 to 130 nM
Kd [5]: 48.7 nM and 55.6 nM
Kd [6]: 93.1 nM

Now from value to binder:

Kd [1]: ~12 nM
B1: full-length mature Dkk2 (Dickkopf 2), residues 38-259, His-tagged (natural protein, human, UniProt Q9UBU2 38-259, looked up)
chain: IKSSLGGETPGQAANRSAGMYQGLAFGGSKKGKNLGQAYPCSSDKECEVGRYCHSPHQGSSACMVCRRKKKRCHRDGMCCPSTRCNNGICIPVTESILTPHIPALDGTRHRDRNHGHYSNHDLGWQNLGRPHTKMSHIKGHEGDPCLRSSDCIEGFCCARHFWTKICKPVLHQGEVCTKQRKKGSHGLEIFQRCDCAKGLSCKVWKDATYSSKARLHVCQKI
notes: also called Dkk2FL

Kd [7]: 11100 nM
B5: N-terminal region of Dkk4 including CRD1, residues 19-97 (domain or fragment)
chain: LVLDFNNIRSSADLHGARKGSQCLSDTDCNTRKFCLQPRDEKPFCATCRGLRRRCQRDAMCCPGTLCVNDVCTTMEDAT
